In patent US10772928B2, “Modulation and detection of a neuronal alternative splicing regulatory network for treatment and diagnosis of neurological disorders” (The Governing Council of the University of Toronto, priority 2014, dated 2020):
Blank lines part the entries; values can stand above or below the molecule they belong to.

Biological target: T1, nSR100 (Mus musculus, UniProt Q8BKA3)
T1 construct: host or cells: mouse N2A cells
T1 sequence (Q8BKA3 1-608): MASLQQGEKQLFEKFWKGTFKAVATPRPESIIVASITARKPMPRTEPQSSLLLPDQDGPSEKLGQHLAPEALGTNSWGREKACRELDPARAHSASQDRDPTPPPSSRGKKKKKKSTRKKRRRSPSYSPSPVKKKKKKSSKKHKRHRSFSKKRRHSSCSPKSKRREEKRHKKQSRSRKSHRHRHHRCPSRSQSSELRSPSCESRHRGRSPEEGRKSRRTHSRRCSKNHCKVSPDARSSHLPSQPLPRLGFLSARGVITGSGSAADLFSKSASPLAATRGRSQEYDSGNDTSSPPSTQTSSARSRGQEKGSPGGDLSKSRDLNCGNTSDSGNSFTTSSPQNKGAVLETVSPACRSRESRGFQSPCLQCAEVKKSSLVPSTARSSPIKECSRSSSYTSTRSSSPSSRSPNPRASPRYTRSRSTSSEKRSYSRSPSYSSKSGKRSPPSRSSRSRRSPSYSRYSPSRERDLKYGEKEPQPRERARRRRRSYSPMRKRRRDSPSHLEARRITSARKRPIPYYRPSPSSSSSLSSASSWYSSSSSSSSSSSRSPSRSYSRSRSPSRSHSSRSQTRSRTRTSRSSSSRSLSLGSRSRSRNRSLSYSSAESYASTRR
Experiment: AP-MS nSR100 interaction partners from mouse N2A cells (Table 5)
Type: binding
Details: for AvgP (average of the SAINT scores) / MaxP (maximal SAINT score): bait Srrm4; for FoldChange between the prey Avg spectra of the bait and control purifications: bait Srrm4, 0.1 added to prevent division by 0; for AvgSpec (average number of spectra per replicate): bait Srrm4, 2 replicates; for Spectra (number of spectra for the prey in the purification of the bait): AP-MS; for SpecSum: bait Srrm4, sum of spectra over 2 replicates

[1] = bait Srrm4, biological replicate 1 (first number of the cell)
[2] = bait Srrm4, biological replicate 2 (second number of the cell)

Source text: By applying affinity purification coupled to mass-spectrometry (AP-MS), several interaction nSR100 partner proteins were detected that provide insight into mechanisms of post-translational regulation of nSR100 levels.

B1: Csnk1e (protein, UniProt Q9JMK2 1-416, looked up)
Casein kinase I isoform …: MELRVGNKYRLGRKIGSGSFGDIYLGANIASGEEVAIKLECVKTKHPQLHIESKFYKMMQGGVGIPSIKWCGAEGDYNVMVMELLGPSLEDLFNFCSRKFSLKTVLLLADQMISRIEYIHSKNFIHRDVKPDNFLMGLGKKGNLVYIIDFGLAKKYRDARTHQHIPYRENKNLTGTARYASINTHLGIEQSRRDDLESLGYVLMYFNLGSLPWQGLKAATKRQKYERISEKKMSTPIEVLCKGYPSEFSTYLNFCRSLRFDDKPDYSYLRQLFRNLFHRQGFSYDYVFDWNMLKFGAARNPEDVDRERREHEREERMGQLRGSATRALPPGPPTGATANRLRSAAEPVASTPASRIQQTGNTSPRAISRADRERKVSMRLHRGAPANVSSSDLTGRQEVSRLAASQTSVPFDHLGK
- AvgP (average of the SAINT scores): 0.91
- MaxP (maximal SAINT score): 0.96
- FoldChange between the prey Avg spectra of the bait and control purifications: 7
- AvgSpec (average number of spectra per replicate): 7
- Spectra (number of spectra for the prey in the purification of the bait) [1]: 6
- Spectra (number of spectra for the prey in the purification of the bait) [2]: 8
- SpecSum: 14

B2: Cdk11b (protein, UniProt P24788 1-784, looked up)
Cyclin-dependent kinase 11B: MGDEKDSWKVKTLDEILQEKKRRKEQEEKAEIKRLKNSDDRDSKRDSLEEGELRDHRMEITIRNSPYRREDSMEDRGEEDDSLAIKPPQQMSRKEKAHHRKDEKRKEKRRHRSHSAEGGKHARVKEKEREHERRKRHREEQDKARREWERQKRREMAREHSRRERDRLEQLERKRERERKLREQQKEQREQKERERRAEERRKEREARREVSAHHRTMREEYSDKGKVGHWSRSPLRPPRERFEMGDNRKPVKEEKVEERDLLSDLQDISDSERKTSSAESSSAESGSGSEEEEEEEEEEEEEEGSTSEESEEEEEEEEEEEEEETGSNSEEASEQSAEEVSDEEMSEDEDRENENHILVVPESRFDRDSGDSEEGEEEVGEGTPQSSAPTEGDYVPDSPALSPIELKQELPKYLPALQGCRSVEEFQCLNRIEEGTYGVVYRAKDKKTDEIVALKRLKMEKEKEGFPITSLREINTILKAQHPNIVTVREIVVGSNMDKIYIVMNYVEHDLKSLMETMKQPFLPGEVKTLMIQLLSGVKHLHDNWILHRDLKTSNLLLSHAGILKVGDFGLAREYGSPLKAYTPVVVTLWYRAPELLLGAKEYSTAVDMWSVGCIFGELLTQKPLFPGKSDIDQINKIFKDLGTPSEKIWPGYNDLPAVKKMTFSEYPYNNLRKRFGALLSDQGFDLMNKFLTYYPGRRINAEDGLKHEYFRETPLPIDPSMFPTWPAKSEQQRVKRGTSPRPPEGGLGYSQLGDDDLKETGFHLTTTNQGASAAGPGFSLKF
- AvgP (average of the SAINT scores): 0.9
- MaxP (maximal SAINT score): 0.98
- FoldChange between the prey Avg spectra of the bait and control purifications: 3.43
- AvgSpec (average number of spectra per replicate): 12
- Spectra (number of spectra for the prey in the purification of the bait) [1]: 13
- Spectra (number of spectra for the prey in the purification of the bait) [2]: 11
- SpecSum: 24

Now from value to molecule:

- AvgP (average of the SAINT scores): 0.91
- MaxP (maximal SAINT score): 1
- FoldChange between the prey Avg spectra of the bait and control purifications: 5.71
- AvgSpec (average number of spectra per replicate): 20
- Spectra (number of spectra for the prey in the purification of the bait) [1]: 11
- Spectra (number of spectra for the prey in the purification of the bait) [2]: 29
- SpecSum: 40
B3: Prpf19 (protein, UniProt Q99KP6 2-504, looked up)
Pre-mRNA-processing factor 19: SLICSISNEVPEHPCVSPVSNHVYERRLIEKYIAENGTDPINNQPLSEEQLIDIKVAHPIRPKPPSATSIPAILKALQDEWDAVMLHSFTLRQQLQTTRQELSHALYQHDAACRVIARLTKEVTAAREALATLKPQAGLIVPQAVPSSQPSVVGAGEPMDLGELVGMTPEIIQKLQDKATVLTTERKKRGKTVPEELVKPEELSKYRQVASHVGLHSASIPGILALDLCPSDTNKILTGGADKNVVVFDKSTEQILATLKGHTKKVTSVVFHPSQELVFSASPDATIRIWSVPNTSCVQVVRAHESAVTGLSLHATGDYLLSSSDDQYWAFSDIQTGRVLTKVTDETSGCSLTCAQFHPDGLIFGTGTMDSQIKIWDLKERTNVANFPGHSGPITSIAFSENGYYLATAADDSSVKLWDLRKLKNFKTLQLDNNFEVKSLIFDQSGTYLALGGTDVQIYICKQWTEILHFTEHSGLTTGVAFGHHAKFIASTGMDRSLKFYSL

- AvgP (average of the SAINT scores): 0.89
- MaxP (maximal SAINT score): 1
- FoldChange between the prey Avg spectra of the bait and control purifications: 5.5
- AvgSpec (average number of spectra per replicate): 11
- Spectra (number of spectra for the prey in the purification of the bait) [1]: 7
- Spectra (number of spectra for the prey in the purification of the bait) [2]: 15
- SpecSum: 22
B4: Cyfip1 (protein, UniProt Q7TMB8 1-1253, looked up)
Cytoplasmic FMR1-interacting …: MAAQVTLEDALSNVDLLEELPLPDQQPCIEPPPSSLLYQPNFNTNFEDRNAFVTGIARYIEQATVHSSMNEMLEEGQEYAVMLYTWRSCSRAIPQVKCNEQPNRVEIYEKTVEVLEPEVTKLMNFMYFQRNAIERFCGEVRRLCHAERRKDFVSEAYLITLGKFINMFAVLDELKNMKCSVKNDHSAYKRAAQFLRKMADPQSIQESQNLSMFLANHNKITQSLQQQLEVISGYEELLADIVNLCVDYYENRMYLTPSEKHMLLKVMGFGLYLMDGSVSNIYKLDAKKRINLSKIDKYFKQLQVVPLFGDMQIELARYIKTSAHYEENKSRWTCASSSSSPQYNICEQMIQIREDHMRFISELARYSNSEVVTGSGRQEAQKTDAEYRKLFDLALQGLQLLSQWSAHVMEVYSWKLVHPTDKYSNKDCPDNAEEYERATRYNYTTEEKFALVEVIAMIKGLQVLMGRMESVFNHAIRHTVYAALQDFSQVTLREPLRQAIKKKKNVIQSVLQAIRKTVCDWETGHEPFNDPALRGEKDPKSGFDIKVPRRAVGPSSTQLYMVRTMLESLIADKSGSKKTLRSSLEGPTILDIEKFHRESFFYTHLINFSETLQQCCDLSQLWFREFFLELTMGRRIQFPIEMSMPWILTDHILETKEASMMEYVLYSLDLYNDSAHYALTKFNKQFLYDEIEAEVNLCFDQFVYKLADQIFAYYKVMAGSLLLDKRLRSECKNQGATIHLPPSNRYETLLKQRHVQLLGRSIDLNRLITQRVSAAMYKSLELAIGRFESEDLTSVVELDGLLEINRMTHKLLSRYLTLDSFDAMFREANHNVSAPYGRITLHVFWELNYDFLPNYCYNGSTNRFVRTVLPFSQEFQRDKQPNAQPQYLHGSKALNLAYSSIYGSYRNFVGPPHFQVICRLLGYQGIAVVMEELLKVVKSLLQGTILQYVKTLMEVMPKICRLPRHEYGSPGILEFFHHQLKDIVEYAELKTVCFQNLREVGNAVLFCLLIEQSLSLEEVCDLLHAAPFQNILPRIHVKEGERVDAKMKRLESKYAPLHLVPLIERLGTPQQIAIAREGDLLTKERLCCGLSMFEVILTRIRTFLDDPIWRGPLPSNGVMHVDECVEFHRLWSAMQFVYCIPVGTHEFTVEQCFGDGLHWAGCMIIVLLGQQRRFAVLDFCYHLLKVQKHDGKDEIIKNVPLKKMVERIRKFQILNDEIITILDKYLKSGDGESTPVEHVRCFQPPIHQSLASS

- AvgP (average of the SAINT scores): 0.87
- MaxP (maximal SAINT score): 0.87
- FoldChange between the prey Avg spectra of the bait and control purifications: 3.33
- AvgSpec (average number of spectra per replicate): 10
- Spectra (number of spectra for the prey in the purification of the bait) [1]: 10|10
- Spectra (number of spectra for the prey in the purification of the bait) [2]: 10|10
- SpecSum: 20
B5: Tpi1 (protein, UniProt P17751 2-249, looked up)
Triosephosphate isomerase: APTRKFFVGGNWKMNGRKKCLGELICTLNAANVPAGTEVVCAPPTAYIDFARQKLDPKIAVAAQNCYKVTNGAFTGEISPGMIKDLGATWVVLGHSERRHVFGESDELIGQKVSHALAEGLGVIACIGEKLDEREAGITEKVVFEQTKVIADNVKDWSKVVLAYEPVWAIGTGKTATPQQAQEVHEKLRGWLKSNVNDGVAQSTRIIYGGSVTGATCKELASQPDVDGFLVGGASLKPEFVDIINAKQ
